Test results from publication PMC10902388.

Assays:
[1] = biological target: E6AP-Nanoluc (human) (UniProt Q05086); assay: SPR
[2] = biological target: E6AP-Nanoluc (human) (UniProt Q05086); assay: FRET or BRET

E6AP-Nanoluc (human), sequence (Q05086 whole entry): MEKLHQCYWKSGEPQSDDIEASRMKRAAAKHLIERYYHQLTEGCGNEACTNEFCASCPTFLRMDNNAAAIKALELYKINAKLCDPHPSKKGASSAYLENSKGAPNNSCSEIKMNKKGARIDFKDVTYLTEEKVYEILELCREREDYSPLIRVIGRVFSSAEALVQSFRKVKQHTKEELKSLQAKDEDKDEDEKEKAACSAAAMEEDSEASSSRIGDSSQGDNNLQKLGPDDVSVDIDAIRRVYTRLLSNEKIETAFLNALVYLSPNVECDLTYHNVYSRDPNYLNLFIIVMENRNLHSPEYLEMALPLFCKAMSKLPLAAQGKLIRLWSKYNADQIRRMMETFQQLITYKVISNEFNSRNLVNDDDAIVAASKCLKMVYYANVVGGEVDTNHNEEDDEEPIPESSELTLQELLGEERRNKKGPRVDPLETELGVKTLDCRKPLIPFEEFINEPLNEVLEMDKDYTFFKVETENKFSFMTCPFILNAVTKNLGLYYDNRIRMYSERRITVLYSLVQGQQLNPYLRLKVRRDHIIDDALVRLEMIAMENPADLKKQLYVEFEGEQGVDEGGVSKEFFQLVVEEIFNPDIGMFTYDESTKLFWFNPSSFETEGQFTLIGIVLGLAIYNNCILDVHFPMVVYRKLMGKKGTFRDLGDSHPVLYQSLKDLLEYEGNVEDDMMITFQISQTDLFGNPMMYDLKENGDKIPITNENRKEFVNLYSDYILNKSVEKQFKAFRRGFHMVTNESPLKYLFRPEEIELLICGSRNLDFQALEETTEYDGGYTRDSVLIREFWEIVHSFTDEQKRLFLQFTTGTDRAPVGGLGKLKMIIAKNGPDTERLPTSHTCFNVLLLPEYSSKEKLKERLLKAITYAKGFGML

**Q.** “MBP-16E6-HaloTag protein (from UniProt P03126) (natural protein)” was tested. Which Kd [1] did it give?
**A.** 4 nM

**Q.** And the Kd [2]?
**A.** 15.3 nM
